From US20240052061A1 (PURINOMIA BIOTECH, published 2024)
Where a chain is given by its changes, count along the chain named.

T1: human ecto-nucleoside triphosphate diphosphohydrolase-3 (NTPDase3) (human, UniProt O75355 1-529)
T1 sequence (looked up): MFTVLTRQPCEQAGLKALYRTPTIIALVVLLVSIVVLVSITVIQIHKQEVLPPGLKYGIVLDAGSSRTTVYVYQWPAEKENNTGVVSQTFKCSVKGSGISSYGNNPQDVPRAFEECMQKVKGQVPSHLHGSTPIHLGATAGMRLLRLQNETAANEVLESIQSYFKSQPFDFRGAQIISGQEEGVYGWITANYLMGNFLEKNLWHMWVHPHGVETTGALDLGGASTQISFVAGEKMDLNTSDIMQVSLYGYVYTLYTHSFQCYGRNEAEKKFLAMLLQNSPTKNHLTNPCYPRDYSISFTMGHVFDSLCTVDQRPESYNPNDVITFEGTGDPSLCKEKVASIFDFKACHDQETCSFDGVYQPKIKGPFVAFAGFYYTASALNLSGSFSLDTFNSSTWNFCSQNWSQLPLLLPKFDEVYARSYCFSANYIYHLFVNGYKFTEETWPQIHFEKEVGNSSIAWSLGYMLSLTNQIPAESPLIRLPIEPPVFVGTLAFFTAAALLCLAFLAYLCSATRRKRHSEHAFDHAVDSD

B1: 44H5 Hu/Ra (antibody, V domains shown)
VH: QEQLEESGGDLVKPEGSLTLTCTASGFDSSSTYYMCWVRQAPGKGLEWSGCIYTGGLTYYASWAKGRFTISKTSSTTVTLQMTSLTAADTATYFCASYIGSRFYMPGFSLWGPGTLVTVSS
VL: AIVMTQTPSSKSVPVGDTVTINCQASESIYSNNRLAWFQQKPGQPPKLLIYLASTLASGVPSRFKGSGSGTQFTLTISDVVCDDAATYYCAGYKGSSTDGTAFGGGTEVVVKG
B2: 38D5 hIgG1 (antibody, V domains shown)
VH: EQQLLESGGGLVQPGGSLRLSCAASGIDFNNYGISWVRQAPGKGLEWIAYKYPGFGIRNYANSVKGRFTISSDNSKNTVYLQMNSLRAEDTAVYFCARGARYRHDDYGALNLWGPGTLVTVSS
VL: DIQMTQSPSTLSASVGDRVTITCQASQSVTNLLAWYQQKPGKPPKLLIYGASNLESGVPSRFSGSGSGTEFTLTISSLQPDDFATYYCQSGYYSANTFGPGTKVDIK
B3: 38D5 hIgG4 (antibody, V domains shown)
VH: B2 VH
VL: B2 VL
B4: 4F9 Hu/Ra (antibody, V domains shown)
VH: QSVEESGGRLVTPGTPLTLTCTVSGFSLSSYAMGWVRQAPGKGLEFIGIITYNGNTYYASWAKGRFPISKTSSTTVDLKMTSPTTEDTATYFCARARYGGYSTNSYYLNIWGPGTLVTVSS
VL: DVVMTQTPASVSAAVGGTVTINCQASENIYRILAWYQQKPGQRPKLLIYGASNLETGVPSRFKGSGSGTEYTLTISDLECDDAATYYCQGVLYNSNDSTFGGGTEVVVKG
B5: 37H1 Hu/Ra (antibody, V domains shown)
VH: B4 VH with M33V, N55A, K63E
VL: B4 VL with Y93W
B6: 16D4 Hu/Ra (antibody, V domains shown)
VH: B4 VH with N55G
VL: B4 VL with I32V, N94D, S95N
B7: 8E1 Hu/Ra (antibody, V domains shown)
VH: B4 VH with T51S, N53S, T90N
VL: B4 VL with S12E, I32V, T56S, E70D, L92V, N96D, T99A
B8: 42D8 Hu/Ra (antibody, V domains shown)
VH: B4 VH with G54S, S60N
VL: B4 VL with R43P
B9: 38D5 Hu/Ra (antibody, V domains shown)
VH: QELVESGGGLVQPGGSLKLSCKASGIDFNNYGISWVRQAPGKGLEWIAYKYPGFGIRNYANSVKGRFTISSDNAQNTVFLQMTSLAASDTATYFCARGARYRHDDYGALNLWGPGTLVTVSS
VL: DIVMTQTPPSVSAAVGGTVTINCQASQSVTNLLAWYQQKPGQPPKLLIYGASNLESGVPSRFRGSGSGTEFTLTISGMKAEDAATYYCQSGYYSANTFGAGTKVGIKR
B10: PBI #30af4 hIgG1 (antibody, V domains shown)
VH: QVQLQESGGGLIQPGGSLRLSCAASGFTSSSSDYAMSWVRQAPGKGLEWVSSISGSGVSTYYADSVKGRFTISRDNSKNTLYVQMTSLTAEDTAVYYCAKVVGYSVYDYYYHYALDVWGQGTTVTVSS
VL: QPVLTQPPSASGTPGQRVTISCSGSSSNIGSNTVNWYQQLPGTAPKLLIYSDNQRPSGVPDRFSGSKSGTSASLTISGLKTEDEAGYYCQSDDTSNVVFGGGTKVTVL
B11: PBI #30af4 hIgG4 (antibody, V domains shown)
VH: B10 VH
VL: B10 VL
B12: PBI #30 hIgG1 (antibody, V domains shown)
VH: B10 VH with V58G, V106M
VL: QPVLTQPPSASGTPGQRVTISCSGSSSNIGSNTVNWYQQLPGTAPKLLIYSNNQRPSGVPDRFSGSKSGTSASLTISGLKTEDEAGYYCQSYDTSNVVFGGGTKVTVLG
notes: Fully human IgG1; also called clone PBI #30; original clone PBI #30 hIgG1
B13: 38D12 Hu/Ra (antibody, V domains shown)
VH: QSVEESGGRLVTPGTPLTLTCTVSGFSLSSYVINWVRQAPGKGLEWIGTISSSGSTYYASWAKGRFTISTTSSTTVDLKITSPTTEDTATYFCARGADGAFISDYFNIWGPGTLVTVSS
VL: DIVMTQTPSSVSAAVGGTVTIKCQANENIDSWLAWYQQKPGQRPKLLIYYASTLASGVPSRFKGSGSGTEYTLTISDLECADGATYYCQSYDTISDYGVGFGGGTEVVVKG
B14: 3E9 Hu/Ra (antibody, V domains shown)
VH: QSLEESGGDLVKPGASLTLTCTASGFSFSSSDWICWVRQAPGKGLEWIACIYAGSIGGAYFASWVNGRFTISRASSTTVTLQMTSLTAADTATYFCARSSSNGRLKLDQFDLWGPGTLVTVSS
VL: AYDMTQTPASVEVAVGGTVTINCQASQSIGGWLSWYRQKPGQPPSLLIYKASTLASGVSSRFSGTGSRTHFTLTINGVQCADAATYYCQQGSAADVANTFGGGTEVVVKG

Legend:
[1] = biological target: T1, human ecto-nucleoside triphosphate …; assay: cell-based or functional assay
[2] = biological target: T1, human ecto-nucleoside triphosphate …; assay: cell-based or functional assay; remark: listed apart in the source
[3] = biological target: T1, human ecto-nucleoside triphosphate …; assay: flow cytometry on RT4 bladder cancer cells (endogenous hENTPD3), 30 minutes at 4 °C (FIG. 4)
Excerpt: FIG. 4. Affinity of PBI #30 measured by flow cytometry using RT4 bladder cancer cells that endogenously express hENTPD3.

[4] = biological target: T1, human ecto-nucleoside triphosphate …; assay: flow cytometry on HEK293T-hENTPD3 cells, 30 minutes at 4 °C (FIG. 3)
Excerpt: FIG. 3. Affinity of PBI #30 measured by flow cytometry using hENTPD3 positive HEK293T cells (stably transfected cells).

[5] = biological target: T1, human ecto-nucleoside triphosphate …; assay: flow cytometry on COS7-hENTPD3 cells, 30 minutes at 4 °C (FIG. 2)
Excerpt: FIG. 2. Affinity of PBI #30 measured by flow cytometry using hENTPD3 positive COS-7 cells (stably transfected cells).

[6] = biological target: T1, human ecto-nucleoside triphosphate …; assay: flow cytometry on COS7-hENTPD3 cells, 2 hours at 37 °C (FIG. 19)
Excerpt: (§1) FIG. 19. Affinity of the fully human anti-hENTPD3 monoclonal antibody PBI #30 hIgG1 measured by flow cytometry using CHO-hENTPD3 and COS7-hENTPD3 cells. Generally, FIG. 19 and following are directed to analyses of anti-hENTPD3 monoclonal antibody clones that have been further optimized exemplary (e.g., affinity maturation and isotype switching for PBI #30 and humanization of 8E1 and 38D5) and related detection methods.

[7] = biological target: T1, human ecto-nucleoside triphosphate …; assay: flow cytometry on CHO-hENTPD3 cells, 2 hours at 37 °C (FIG. 19)
Excerpt: as §1

[8] = biological target: T1, human ecto-nucleoside triphosphate …; assay: flow cytometry on CHO-hENTPD3 cells, 30 minutes at 4 °C (FIG. 1)
Method: FIG. 1. Affinity of PBI #30 measured by flow cytometry using human ENTPD3 (hENTPD3) positive CHO cells (stably transfected cells). PBI #30 was serially diluted as indicated (top dose 333 nM) and incubated with CHO-hENTPD3 cells for 30 minutes at 4° C., followed by secondary antibody staining (anti-human IgG (Fc specific), Alexa Fluor® 488) for 30 minutes at 4° C. and flow cytometry analysis.

Row | Binder | ADCC EC50 (µg/mL), NFAT luciferase reporter Jurkat/hCD16a-158V [1] [µg/mL] | Enzyme Activity Inhibition Capacity: % of Maximal Inhibition [1] [%] | Enzyme Activity Inhibition Capacity: EC50 [1] [µg/mL] | other results
1 | B1 | 0.045 | 15 | – | –
2 | B2 | 0.104 | 43 | 0.22 | ADCC fold increase in relation to parental clone at 1 µg/mL [1]: 1.2 fold; CDC % of Maximal Cytotoxicity [1]: 4%; CDC EC50 [1]: 0.694 µg/mL
3 | B3 | – | 41 | – | –
4 | B4 | 0.064 | 12 | – | –
5 | B5 | 0.044 | 9 | – | –
6 | B6 | 0.053 | 9 | – | –
7 | B7 | 0.075 | 5 | – | CDC % of Maximal Cytotoxicity [1]: 13%; CDC EC50 [1]: 0.239 µg/mL
8 | B8 | 0.072 | 12 | – | –
9 | B9 | 0.104 | 44 | 0.31 | CDC % of Maximal Cytotoxicity [1]: 1%; CDC EC50 [1]: 1.73 µg/mL; EC50 of hENTPD3 enzyme activity inhibition, CHO-hENTPD3 cells, antibody 30 minutes [2]: 15.9 µg/mL; enzyme activity inhibition capacity, maximal inhibition [2]: ~40%
10 | B10 | 0.434 | 91 | 0.82 | ADCC fold increase in relation to parental clone at 1 µg/mL [1]: 2.8 fold; enzyme activity inhibition capacity, maximal inhibition [2]: ~100%
11 | B11 | – | 95 | 1.33 | enzyme activity inhibition capacity, maximal inhibition [2]: ~100%
12 | B12 | 1.44 | 76 | 2.51 | Kd [3]: 10.1 nM; Kd [4]: 8.4 nM; Kd [5]: 11.9 nM; Kd [6]: 1.82 nM; Kd [7]: 2.96 nM; Kd [8]: 5.53 nM; ADCC EC50, NFAT luciferase reporter Jurkat/hCD16a-158V [2]: 0.092 µg/mL; EC50 of hENTPD3 enzyme activity inhibition, CHO-hENTPD3 cells, antibody 30 minutes [2]: 17.3 µg/mL
13 | B13 | 0.059 | 9 | – | –
14 | B14 | 0.044 | 6 | – | –
